The series concerns Escherichia coli TOP10. In words: shrunken log2 fold change of peptide-encoding DNA abundance (4.5 h post-induction vs induction); higher = less antimicrobial activity (less host growth inhibition). Conditions: time post-induction: 4.5 h; library: site-saturation at positions 5, 18, 19, 20.
Turning to RRIRMRPPRLPRPRPRPPHIPRP, the “shrunken log2 fold change” value was -0.0498. As to RRIRFRPPRLPRPRPRPDNRPRP, the “shrunken log2 fold change” value is -0.0149. For RRIRPRPPRLPRPRPRPMCHPRP, the “shrunken log2 fold change” value was -0.22. As for RRIRQRPPRLPRPRPRPPRFPRP, the figure is 1.51; as for RRIRFRPPRLPRPRPRPRMKPRP, -0.0673. As for RRIRERPPRLPRPRPRPHDLPRP, the “shrunken log2 fold change” value was -0.343. Consider RRIRTRPPRLPRPRPRPGPDPRP, for which the “shrunken log2 fold change” value is -0.228.

On to RRIRLRPPRLPRPRPRPEDYPRP, for which the “shrunken log2 fold change” value is -0.0202. With RRIRLRPPRLPRPRPRPAEGPRP, the “shrunken log2 fold change” value amounted to 0.242. Regarding RRIRKRPPRLPRPRPRPVNIPRP, the “shrunken log2 fold change” value was -0.0139. In the case of RRIRNRPPRLPRPRPRPWVPPRP, the “shrunken log2 fold change” value is -1.03. As for RRIRGRPPRLPRPRPRPNAPPRP, the figure is 0.938; as for RRIRLRPPRLPRPRPRPMPSPRP, -0.0353; as for RRIRDRPPRLPRPRPRPENMPRP, 0.0225. Consider RRIRYRPPRLPRPRPRPRVGPRP, for which the “shrunken log2 fold change” value amounted to 0.161. Regarding RRIRFRPPRLPRPRPRPCRWPRP, the “shrunken log2 fold change” value was 0.0901.

On to RRIRMRPPRLPRPRPRPPEFPRP, for which the “shrunken log2 fold change” value was 1.05. Regarding RRIRGRPPRLPRPRPRPIGKPRP, the “shrunken log2 fold change” value came out at 0.035. With RRIRYRPPRLPRPRPRPCWEPRP, the “shrunken log2 fold change” value was -0.288. For the sequence RRIRFRPPRLPRPRPRPTYDPRP, the “shrunken log2 fold change” value was -0.604.

For RRIRTRPPRLPRPRPRPIFCPRP, the “shrunken log2 fold change” value is -0.327. As for RRIRWRPPRLPRPRPRPIRHPRP, the “shrunken log2 fold change” value is -0.252. Take RRIRMRPPRLPRPRPRPDYIPRP: the “shrunken log2 fold change” value is -0.354. On to RRIRNRPPRLPRPRPRPNEVPRP, for which the “shrunken log2 fold change” value was -0.0252. As for RRIRSRPPRLPRPRPRPTGSPRP, the “shrunken log2 fold change” value was determined as 0.0396. In the case of RRIRNRPPRLPRPRPRPDATPRP, the “shrunken log2 fold change” value was 0.0488. Regarding RRIRQRPPRLPRPRPRPAIHPRP, the “shrunken log2 fold change” value is 0.135. As for RRIRIRPPRLPRPRPRPQVIPRP, the figure is -0.0417. On to RRIRVRPPRLPRPRPRPAVNPRP, for which the “shrunken log2 fold change” value is 0.138. As to RRIRPRPPRLPRPRPRPFAAPRP, the “shrunken log2 fold change” value was found to be 0.227.

With RRIRMRPPRLPRPRPRPRTAPRP, the “shrunken log2 fold change” value stood at 1.29. As for RRIRIRPPRLPRPRPRPFLNPRP, the figure is -0.429; as for RRIRHRPPRLPRPRPRPMTIPRP, -0.081. Turning to RRIRRRPPRLPRPRPRPIANPRP, the “shrunken log2 fold change” value was -0.195.

Consider RRIRRRPPRLPRPRPRPTHVPRP, for which the “shrunken log2 fold change” value came to 0.427.

For the sequence RRIRSRPPRLPRPRPRPRPCPRP, the “shrunken log2 fold change” value was found to be 0.137. As for RRIRPRPPRLPRPRPRPCAAPRP, the “shrunken log2 fold change” value stood at 0.888. For the sequence RRIRSRPPRLPRPRPRPINNPRP, the “shrunken log2 fold change” value was -0.647.

RRIRMRPPRLPRPRPRPPTDPRP: the “shrunken log2 fold change” value turned out to be 1.21. As for RRIRHRPPRLPRPRPRPWNCPRP, the figure is -0.366; as for RRIRQRPPRLPRPRPRPYHCPRP, -0.0107. Regarding RRIRYRPPRLPRPRPRPQVDPRP, the “shrunken log2 fold change” value was -0.205. For RRIRERPPRLPRPRPRPKTPPRP the value was 0.0131.

As for RRIRTRPPRLPRPRPRPLIDPRP, the “shrunken log2 fold change” value was -0.0458. On to RRIRGRPPRLPRPRPRPLCHPRP, for which the “shrunken log2 fold change” value was found to be 0.775. As for RRIRSRPPRLPRPRPRPSCRPRP, the figure is -0.0379; as for RRIRSRPPRLPRPRPRPYKDPRP, -0.716. As for RRIRWRPPRLPRPRPRPAWGPRP, the “shrunken log2 fold change” value was 0.477. As to RRIRIRPPRLPRPRPRPGKDPRP, the “shrunken log2 fold change” value came to 0.00215. For RRIRGRPPRLPRPRPRPQAFPRP, the “shrunken log2 fold change” value amounted to 0.112. Regarding RRIRFRPPRLPRPRPRPVMCPRP, the “shrunken log2 fold change” value is -0.263. Take RRIRPRPPRLPRPRPRPATEPRP: the “shrunken log2 fold change” value was 0.0977. On to RRIRKRPPRLPRPRPRPKNIPRP, for which the “shrunken log2 fold change” value was -0.253.

For the sequence RRIRGRPPRLPRPRPRPKFQPRP, the “shrunken log2 fold change” value is 0.528.

As for RRIRLRPPRLPRPRPRPNCMPRP, the “shrunken log2 fold change” value was -0.415.

As to RRIRIRPPRLPRPRPRPMKSPRP, the “shrunken log2 fold change” value was -0.161. RRIRQRPPRLPRPRPRPVAIPRP: the “shrunken log2 fold change” value is -0.367. Regarding RRIRDRPPRLPRPRPRPFLEPRP, the “shrunken log2 fold change” value is -0.192.

On to RRIRNRPPRLPRPRPRPNGNPRP, for which the “shrunken log2 fold change” value was -0.0621. As for RRIRPRPPRLPRPRPRPGRCPRP, the “shrunken log2 fold change” value is 0.442. For RRIRFRPPRLPRPRPRPQEDPRP the value was 0.0325.

Take RRIRWRPPRLPRPRPRPATEPRP: the “shrunken log2 fold change” value amounted to 0.479. On to RRIRIRPPRLPRPRPRPCICPRP, for which the “shrunken log2 fold change” value is -0.148. For RRIRGRPPRLPRPRPRPNITPRP the value was 0.315; for RRIRTRPPRLPRPRPRPDLAPRP, 0.132; for RRIRMRPPRLPRPRPRPIKSPRP, -0.0237. Regarding RRIRVRPPRLPRPRPRPSDSPRP, the “shrunken log2 fold change” value was -0.4. Turning to RRIRFRPPRLPRPRPRPWCEPRP, the “shrunken log2 fold change” value is -0.429. RRIRMRPPRLPRPRPRPWIVPRP: the “shrunken log2 fold change” value was determined as 0.0842.

As to RRIRCRPPRLPRPRPRPYFDPRP, the “shrunken log2 fold change” value was -0.446. In the case of RRIRWRPPRLPRPRPRPWDCPRP, the “shrunken log2 fold change” value was -0.0326. RRIRRRPPRLPRPRPRPETFPRP: the “shrunken log2 fold change” value is -0.0525. For RRIRKRPPRLPRPRPRPIDYPRP the value was -0.0337; for RRIRIRPPRLPRPRPRPCDYPRP, -1.01. As for RRIRNRPPRLPRPRPRPVRSPRP, the “shrunken log2 fold change” value is -0.00792.

RRIRQRPPRLPRPRPRPFFDPRP: the “shrunken log2 fold change” value was -0.0271.

Turning to RRIRWRPPRLPRPRPRPKFEPRP, the “shrunken log2 fold change” value was found to be 0.2. Consider RRIRWRPPRLPRPRPRPPTRPRP, for which the “shrunken log2 fold change” value was 0.578.

In the case of RRIRKRPPRLPRPRPRPQSEPRP, the “shrunken log2 fold change” value worked out at 0.0585. Take RRIRLRPPRLPRPRPRPMQCPRP: the “shrunken log2 fold change” value is -0.0717.

As to RRIRNRPPRLPRPRPRPMYSPRP, the “shrunken log2 fold change” value was -0.479. Consider RRIRTRPPRLPRPRPRPYYFPRP, for which the “shrunken log2 fold change” value is -0.783.

For RRIRFRPPRLPRPRPRPRSYPRP, the “shrunken log2 fold change” value was -0.268.

On to RRIRYRPPRLPRPRPRPTCFPRP, for which the “shrunken log2 fold change” value was -0.222. For the sequence RRIRARPPRLPRPRPRPTEFPRP, the “shrunken log2 fold change” value came to 0.368. In the case of RRIRRRPPRLPRPRPRPIASPRP, the “shrunken log2 fold change” value was 0.432.

As to RRIRVRPPRLPRPRPRPMSKPRP, the “shrunken log2 fold change” value is -0.0756. For RRIRCRPPRLPRPRPRPNYKPRP, the “shrunken log2 fold change” value is -0.831. In the case of RRIRRRPPRLPRPRPRPVFVPRP, the “shrunken log2 fold change” value was found to be 0.292. As for RRIRQRPPRLPRPRPRPACTPRP, the figure is -0.475.

As for RRIRCRPPRLPRPRPRPMCDPRP, the “shrunken log2 fold change” value turned out to be 0.128.

As for RRIRTRPPRLPRPRPRPLSPPRP, the “shrunken log2 fold change” value is 0.0169. For RRIRKRPPRLPRPRPRPHNMPRP the value was -0.438. For RRIRKRPPRLPRPRPRPDAYPRP, the “shrunken log2 fold change” value stood at 1.82.

On to RRIRIRPPRLPRPRPRPMMHPRP, for which the “shrunken log2 fold change” value is -0.59. As for RRIRYRPPRLPRPRPRPAFNPRP, the figure is -0.431.

With RRIRGRPPRLPRPRPRPCTGPRP, the “shrunken log2 fold change” value amounted to 0.11. Consider RRIRERPPRLPRPRPRPSYQPRP, for which the “shrunken log2 fold change” value is -0.469. As to RRIRWRPPRLPRPRPRPQTFPRP, the “shrunken log2 fold change” value is -0.293. Take RRIRIRPPRLPRPRPRPGLGPRP: the “shrunken log2 fold change” value was found to be 0.217. Regarding RRIRKRPPRLPRPRPRPQRLPRP, the “shrunken log2 fold change” value stood at 0.308. As for RRIRERPPRLPRPRPRPGWMPRP, the figure is 0.144.

In the case of RRIRWRPPRLPRPRPRPNNNPRP, the “shrunken log2 fold change” value is -0.514. As to RRIRMRPPRLPRPRPRPQKVPRP, the “shrunken log2 fold change” value stood at 0.238. Consider RRIRPRPPRLPRPRPRPVCMPRP, for which the “shrunken log2 fold change” value was 0.132. As to RRIRFRPPRLPRPRPRPCAMPRP, the “shrunken log2 fold change” value is -0.561.

Regarding RRIRNRPPRLPRPRPRPAIEPRP, the “shrunken log2 fold change” value came to 0.00973. For RRIRMRPPRLPRPRPRPQFQPRP the value was -0.165; for RRIRWRPPRLPRPRPRPEARPRP, 0.106; for RRIRNRPPRLPRPRPRPPWHPRP, 0.129. For RRIRNRPPRLPRPRPRPKNHPRP the value was -0.19. In the case of RRIRDRPPRLPRPRPRPNSLPRP, the “shrunken log2 fold change” value turned out to be 0.0174. Regarding RRIRWRPPRLPRPRPRPQNPPRP, the “shrunken log2 fold change” value was -0.0448. With RRIRRRPPRLPRPRPRPTRKPRP, the “shrunken log2 fold change” value came out at 0.498.

RRIRQRPPRLPRPRPRPAAEPRP: the “shrunken log2 fold change” value was 0.19. As to RRIRGRPPRLPRPRPRPPACPRP, the “shrunken log2 fold change” value turned out to be 1.36. With RRIRVRPPRLPRPRPRPYPRPRP, the “shrunken log2 fold change” value stood at 0.0644. Take RRIRPRPPRLPRPRPRPCATPRP: the “shrunken log2 fold change” value is 0.132.

With RRIRIRPPRLPRPRPRPCVPPRP, the “shrunken log2 fold change” value was -0.162. RRIRGRPPRLPRPRPRPMGVPRP: the “shrunken log2 fold change” value was determined as 0.00855. Consider RRIRGRPPRLPRPRPRPGNAPRP, for which the “shrunken log2 fold change” value amounted to 0.478. In the case of RRIRIRPPRLPRPRPRPHTSPRP, the “shrunken log2 fold change” value is -1.18. As for RRIRNRPPRLPRPRPRPDNVPRP, the figure is -0.0161. For the sequence RRIRFRPPRLPRPRPRPEWRPRP, the “shrunken log2 fold change” value stood at 0.531. For RRIRIRPPRLPRPRPRPTQCPRP, the “shrunken log2 fold change” value is -0.65.

The values above are taken from the supplement of paper PMC9112550, “Optimization of the antimicrobial peptide Bac7 by deep mutational scanning” (BMC Biology, 2022).
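Note: peptides expressed intracellularly from a pBAD plasmid library in pooled LB shake-flask culture, induced with 0.3% L-arabinose, DNA abundance read by NGS, three biological replicates, DESeq2 with apeglm shrinkage.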
